Assays:
[1] = biological target: T1, human EGFR (cell surface) (human, UniProt P00533 25-1210); test: FACS competition, competitor W5626-2C10-z5; lower panel 'Binning with W5626-2C10-z5'; cells not named on the sheet, A431 in the example
T1 construct: whole, on cells; also called W562-CHO-K1.hPro1.E9 cells; A431 cells

[2] = biological target: T1, human EGFR (cell surface); test: FACS competition, competitor W5626-2C2-z22; upper panel 'Binning with W5626-2C2-z22'; cells not named on the sheet, A431 in the example
[3] = biological target: T2, human EGFRvIII (cell surface) (human, UniProt P00533 25-1210); test: FACS on EGFRvIII transfected cells, anti-c-Myc-biotin and streptavidin-PE
T2 construct: whole, on cells; also called hEGFRIII; EGFR variant III

VEGF.his = test: non-specific binding ELISA, 10 µg/ml VHH on coated antigen
Method: (§1) Non-specific binding ELISA was performed in 96-well high binding plates (Nunc-Immuno Plate, Thermo Scientific). The plate was coated with various antigens at 2 μg/mL overnight at 4° C. […] The plates were subsequently incubated with the secondary antibody Goat anti-cMyc-HRP (Bethyl) for additional 1 hour. The HRP signal was detected by adding TMB substrate and the reaction was stopped after 12 minutes using 2M HCl. The absorbance at 450 nm was read using a microplate reader (Molecular Device). All incubation steps were performed at room temperature. The plate was washed with PBST (0.05% Tween20-PBS) between each step.

CD40 = test: as above
CD40, sequence (P25942 21-193): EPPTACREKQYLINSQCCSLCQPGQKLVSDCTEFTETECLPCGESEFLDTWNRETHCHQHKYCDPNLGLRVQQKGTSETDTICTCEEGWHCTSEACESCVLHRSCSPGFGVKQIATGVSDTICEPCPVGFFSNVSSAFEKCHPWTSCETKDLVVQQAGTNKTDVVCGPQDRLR
Method: as §1

HSA [4] = biological target: T3, HSA (UniProt P02768 25-609); test: as above
Method: as §1

4-1BB.his [5] = biological target: T4, 4-1BB.his (Homo sapiens (Human), UniProt Q07011 24-186); test: as above
T4 sequence (Q07011 24-186 limits assumed): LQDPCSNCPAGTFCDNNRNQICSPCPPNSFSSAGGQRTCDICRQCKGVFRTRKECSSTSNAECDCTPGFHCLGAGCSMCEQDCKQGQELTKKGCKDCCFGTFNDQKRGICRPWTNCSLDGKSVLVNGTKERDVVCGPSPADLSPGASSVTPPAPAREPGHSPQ
Method: as §1

CD22.his = test: as above
Method: as §1

CD3.his = test: as above
Method: as §1

W317-hPro1.ECD.his = test: as above
Method: as §1

HER3.his [6] = biological target: T5, HER3.his (Homo sapiens (Human), UniProt P21860 20-643); test: as above
Method: as §1

FGFR.his = test: as above
Method: as §1

CTLA4.his = test: as above
CTLA4.his, sequence (P16410 36-161): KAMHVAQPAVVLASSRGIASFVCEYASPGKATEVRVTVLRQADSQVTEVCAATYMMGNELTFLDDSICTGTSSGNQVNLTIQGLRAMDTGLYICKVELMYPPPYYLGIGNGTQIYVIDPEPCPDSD
Method: as §1

CD147 = test: as above
Method: as §1

OX40.his = test: as above
OX40.his, sequence (P43489 29-214): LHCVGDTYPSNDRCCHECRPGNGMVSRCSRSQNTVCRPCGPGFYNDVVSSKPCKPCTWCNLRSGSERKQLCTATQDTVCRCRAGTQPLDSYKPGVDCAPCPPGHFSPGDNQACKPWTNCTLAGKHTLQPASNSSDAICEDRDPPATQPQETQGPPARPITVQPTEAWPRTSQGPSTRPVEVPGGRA
Method: as §1

Factor Eight = test: as above
Method: as §1

PD-1.his = test: as above
PD-1.his, sequence (Q15116 25-170): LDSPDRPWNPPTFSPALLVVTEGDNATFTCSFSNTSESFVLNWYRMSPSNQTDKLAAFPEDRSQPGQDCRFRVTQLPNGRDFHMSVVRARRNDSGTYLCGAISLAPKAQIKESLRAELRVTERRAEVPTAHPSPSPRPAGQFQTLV
Method: as §1

HSA [7] = biological target: T3, HSA; test: ELISA, antigen coated at 2 µg/mL, anti-cMyc-HRP detection
Method: as §1

4-1BB.his [8] = biological target: T4, 4-1BB.his; test: as above
Method: as §1

HER3.his [9] = biological target: T5, HER3.his; test: as above
Method: as §1

B1: W5626-2C10.VHH (VHH)
VHH: AVQLVESGGGLVQAGGSLTLSCAASGRTFSSYAMGWFRQAPGKEREFVAADRWSGGNTRYADSVKGRFTISRDNAKNTVYLQMNSLKPEDTAVYYCAATYLSSDYEWGVPPKAYDYDYWGQGTQVTVSS
notes: c-Myc and his-tagged VHH fragment made in E. coli BL21; not shown: 6-his and c-Myc tags fused at the C-terminus
Question: Which “IC50 (read off the curve)” value [1] does the source give for B1 here?
Answer: ~1 nM

Question: And the “IC50 (read off the curve)” value [2]?
Answer: ~1 nM

Question: And the EC50 [3]?
Answer: 1.08 nM

B2: W5626-2C10-z5 (VHH) (VHH)
VHH: AVQLVESGGGLVQPGGSLTLSCAASGRTFSSYAMGWFRQAPGKEREFVAADRWSGGNTRYADSVKGRFTISRDNAKNTLYLQMNSLRAEDTAVYYCAATYLSSDYEWGVPPKAYDYDYWGQGTLVTVSS
notes: also called c-Myc and his-tagged VHH fragment of W5626-2C10-z5; not shown: c-Myc and his tags
Question: What does the source list for B2?
Answer: OD A450 (VEGF.his): 0.05 OD A450; OD A450 (CD40): 0.05 OD A450; OD A450 (HSA [4]): 0.05 OD A450; OD A450 (4-1BB.his [5]): 0.05 OD A450; OD A450 (CD22.his): 0.05 OD A450; OD A450 (CD3.his): 0.04 OD A450; OD A450 (W317-hPro1.ECD.his): 0.05 OD A450; OD A450 (HER3.his [6]): 0.04 OD A450; OD A450 (FGFR.his): 0.05 OD A450; OD A450 (CTLA4.his): 0.04 OD A450; OD A450 (CD147): 0.04 OD A450; OD A450 (OX40.his): 0.04 OD A450; OD A450 (Factor Eight): 0.04 OD A450; OD A450 (PD-1.his): 0.04 OD A450; binding result (HSA [7]): no binding (tested: 10 µg/ml); binding result (4-1BB.his [8]): no binding (tested: 10 µg/ml); binding result (HER3.his [9]): no binding (tested: 10 µg/ml)

B3: W5626-2C2.VHH (VHH)
VHH: EVQLVESGGGLVQAGDSLRLSCAASGRTHSNYVMGWFRQAPGQEREFVAGISRTYGNTYYRDSVEGRFTISVDNPKNTVYLQMNSLKPEDTAVYYCAADPTRSEVILTTSHRYVYWGQGTLVTVSS
notes: as for B1
Question: Which results are given for B3?
Answer: IC50 (read off the curve) [1]: ~1 nM; IC50 (read off the curve) [2]: ~2 nM; EC50 [3]: 2.41 nM

B4: W5626-2C2-z22 (VHH) (VHH)
VHH: EVQLVESGGGLVQPGGSLRLSCAASGRTHSNYVMGWFRQAPGQEREFVAGISRTYGNTYYRDSVEGRFTISRDNSKNTLYLQMNSLRAEDTAVYYCAADPTRSEVILTTSHRYVYWGQGTLVTVSS
notes: also called c-Myc and his-tagged VHH fragment of W5626-2C2-z22; not shown: c-Myc and his tags
Question: B4 was tested. Which “OD A450” value (VEGF.his) did it give?
Answer: 0.07 OD A450

Question: What about the “OD A450” value (CD40) of the same binder?
Answer: 0.06 OD A450

Question: What about the “OD A450” value (HSA [4]) of the same binder?
Answer: 0.07 OD A450

Question: What about the “OD A450” value (4-1BB.his [5]) of the same binder?
Answer: 0.06 OD A450

Question: And the “OD A450” value (CD22.his)?
Answer: 0.06 OD A450

Question: And the “OD A450” value (CD3.his)?
Answer: 0.06 OD A450

Question: And the “OD A450” value (W317-hPro1.ECD.his)?
Answer: 0.07 OD A450

Question: What about the “OD A450” value (HER3.his [6]) of the same binder?
Answer: 0.06 OD A450

Question: And the “OD A450” value (FGFR.his)?
Answer: 0.05 OD A450

Question: What about the “OD A450” value (CTLA4.his) of the same binder?
Answer: 0.07 OD A450

Question: What about the “OD A450” value (CD147) of the same binder?
Answer: 0.06 OD A450

Question: And the “OD A450” value (OX40.his)?
Answer: 0.05 OD A450

Question: And the “OD A450” value (Factor Eight)?
Answer: 0.05 OD A450

Question: What about the “OD A450” value (PD-1.his) of the same binder?
Answer: 0.06 OD A450

Question: Does B4 bind (HSA [7])?
Answer: no binding (tested: 10 µg/ml)

Question: Does B4 bind (4-1BB.his [8])?
Answer: no binding (tested: 10 µg/ml)

Question: Does B4 bind (HER3.his [9])?
Answer: no binding (tested: 10 µg/ml)

From patent US20210115146A1 (WUXI BIOLOGICS IRELAND, published 2021)
